Experimental data published in IntAct's records for PubMed 19942853.

B1: Cullin-associated NEDD8-dissociated protein 1 homolog (Saccharomyces cerevisiae), Q92325 (parent)
chain: MSLHISKLIEQYRSTKDNDLKYMLLRQNFKINDIEDELAPLVNELLLPVLVEEQDMEILNLVSFQVLPDLVLSMISDPAAAQLGWVISLICDPLLNQSMIHANRSFVLIETLRNVLQKIENSPHLDYHQPVNSSLEFISKFIVEMKRHMCDVDAAQLSHSLSESNMLIYIESLNLLLKFSFFSDAASPSVMVTLPFDILNDVFTIAQDYSATNTNESIDRITEKLLLTSTQLTHPVDLENLCPKMKYNTLAAVSRIWYKFGPIVDKLFTNRLLPVLFPPQMGEECNVEDVLEIVHNFHPYFSIRRLKDNRPLLSDSTISQLREGLFGMLSILNDSLTRTQNENDHGSDNLIDSDDGFGSDNDPEQQAYLDELVSEGYDENMYDGDTDDEDADDINVEKNDEATKDITETNKILLIFSELHYPQEERFSELLVELQTKIAINTSLIDKILSKETTELPTHNGEIADLNEILNEVKGNKPIRKNVIFCTLAHTLSLQSGSELSVLQLSIEVIDHLLVKNHSNNITRGEQFQLIKLILPHLKTNKSFIDTLKAGNFTQKIDEGVTLRTMILSLLLQLFPLDYSMLGEILPTIARYSVRDKDLGVRDLSFQLLDQILRTYYNYLIGIDWEWYKDDFYQVLQETCIKKDINTNLLLQFPPYLPHD
partner: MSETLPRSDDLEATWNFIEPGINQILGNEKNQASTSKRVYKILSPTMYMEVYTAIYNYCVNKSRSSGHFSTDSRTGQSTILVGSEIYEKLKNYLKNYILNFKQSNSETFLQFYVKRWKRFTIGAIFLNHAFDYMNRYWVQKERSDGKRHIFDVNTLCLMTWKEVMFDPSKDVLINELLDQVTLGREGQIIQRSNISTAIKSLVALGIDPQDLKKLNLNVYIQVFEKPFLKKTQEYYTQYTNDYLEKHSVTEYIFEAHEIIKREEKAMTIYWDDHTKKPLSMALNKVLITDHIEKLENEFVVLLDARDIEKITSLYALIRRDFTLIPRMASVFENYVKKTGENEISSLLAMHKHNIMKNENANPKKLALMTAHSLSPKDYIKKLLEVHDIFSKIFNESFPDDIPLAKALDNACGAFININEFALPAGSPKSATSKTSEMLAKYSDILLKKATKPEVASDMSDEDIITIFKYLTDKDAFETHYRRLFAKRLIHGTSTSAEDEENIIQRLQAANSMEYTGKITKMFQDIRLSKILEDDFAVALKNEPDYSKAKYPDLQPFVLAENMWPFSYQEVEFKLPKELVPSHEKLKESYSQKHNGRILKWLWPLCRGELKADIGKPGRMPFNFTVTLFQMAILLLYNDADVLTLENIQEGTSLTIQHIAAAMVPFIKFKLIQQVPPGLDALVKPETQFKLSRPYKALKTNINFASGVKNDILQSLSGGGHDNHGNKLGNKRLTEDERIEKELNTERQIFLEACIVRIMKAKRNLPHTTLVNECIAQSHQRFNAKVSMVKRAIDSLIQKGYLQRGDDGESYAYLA

Variants of: B1
Conditions: with cdc53_yeast CDC53, Q12018

| Variant | effect of a mutation on the interaction |
| --- | --- |
| G551A | decreasing interaction |
| N552A | decreasing interaction |

Variants of: B1
Conditions: with cdc53_yeast CDC53, Q12018
Remark: another data set of the same source

| Variant | effect of a mutation on the interaction |
| --- | --- |
| D17A | disrupting interaction |
| D19A | disrupting interaction |
| Y22A | disrupting interaction |
| M23A | disrupting interaction |
